Results on 3 molecules are retold here after patent publication US20210145878A1.

In one test the target is CD79b-AF647. The test can be described thus: flow cytometry, CAR-transduced primary human T cells stained with recombinant human CD79b extracellular domain-AF647. (Flow cytometry measures light scatter and fluorescence of single cells or particles in a stream.)
The target in test [1] is recombinant human CD79b isoform-2 (short) (human) (UniProt P40259). The test can be described thus: SPR, Biacore 8k; scFv-Fc captured by anti-human Fc, CD79b as analyte; 1:1 Langmuir.

As usually defined, the Kd is the constant that tells how readily two partners part at equilibrium.

Numbering of substitutions follows the chain as printed.

Chain of CD79b-AF647 (chain, as listed by the source limits assumed): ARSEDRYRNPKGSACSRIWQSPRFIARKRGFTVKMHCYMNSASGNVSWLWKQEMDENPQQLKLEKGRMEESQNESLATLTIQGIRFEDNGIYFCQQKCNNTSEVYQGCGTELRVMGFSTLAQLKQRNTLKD

B1: SN8 #51 (protein, part only; not given: hinge, transmembrane and signaling domains, part only)
CAR polypeptide, part: DIVLTQSPDSLAVSLGERATINCKASQSVDYEGDSFLNWYQQKPGQPPKLLIYAASNLESGVPDRFSGSGSGTDFTLTISSLQAEDVAVYYCQQSNEDPLTFGGGTKVEIKGGSEGKSSGSGSESKSTGGSQVQLVQSGAEVKKPGASVKVSCKASGYTFTGYWIEWVRQAPGQGLEWMGEILPGGGDTNYNQKFQGKVTFTRDTSTSTAYMELSSLRSEDTAVYYCARRVPVYFDYWGQGTLVTVSS
Regarding B1, the aCD79b CAR+ (frequency of CAR+ cells) with CD79b-AF647 turned out to be 0.048.

B2: CD9W23 LH scFv-Fc (Fc fusion, not shown: a dimerising Fc or GST)
chain: B1 CAR polypeptide, part with E32D, A171R
Take B2: in test [1], the Kd is 11.5 nM.

B3: CD9W59 LH scFv-Fc (Fc fusion, not shown: a dimerising Fc or GST)
chain: B1 CAR polypeptide, part with E32D, A210V
Consider B3, for which the Kd in test [1] worked out at 6.9 nM.
